Data on 94 variants can be found in the supplement of paper PMC10567573.

B1: PTPRD (parent)
chain: ELDELLKEISRKRRSIRYGREVEL
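Note: lentivirally expressed fusions sorted by FACS into six bins by GFP to DsRed ratio, PSI derived from sequencing read proportions per bin multiplied by bin number.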

This data set covers variants of B1. In words: protein stability index of a GFP-peptide fusion (GPS, HEK-293T) (PSI 1-6); higher = more stable. Particulars: c terminus: a fixed tail appended.
As to ELDYLLKEISRKRRSIRYGREVEL [E4Y], the protein stability index came to 1.27.

As to ELDPLLKEISRKRRSIRYGREVEL [E4P], the protein stability index was found to be 2.48.

With ELDKLLKEISRKRRSIRYGREVEL [E4K], the protein stability index stood at 2.59.

Turning to ELDQLLKEISRKRRSIRYGREVEL [E4Q], the protein stability index was 1.99.

Turning to ELDCLLKEISRKRRSIRYGREVEL [E4C], the protein stability index worked out at 1.57.

As for ELDVLLKEISRKRRSIRYGREVEL [E4V], the protein stability index amounted to 1.94.

Turning to ELDTLLKEISRKRRSIRYGREVEL [E4T], the protein stability index was 1.88.

For ELDGLLKEISRKRRSIRYGREVEL [E4G], the protein stability index came to 3.34.

ELDSLLKEISRKRRSIRYGREVEL [E4S]: the protein stability index is 1.85.

For ELDFLLKEISRKRRSIRYGREVEL [E4F], the protein stability index was determined as 2.39.

Regarding ELDDLLKEISRKRRSIRYGREVEL [E4D], the protein stability index amounted to 2.07.

Regarding ELDILLKEISRKRRSIRYGREVEL [E4I], the protein stability index was found to be 1.73.

Take ELDWLLKEISRKRRSIRYGREVEL [E4W]: the protein stability index came to 2.29.

With ELDLLLKEISRKRRSIRYGREVEL [E4L], the protein stability index was 2.19.

As to ELDALLKEISRKRRSIRYGREVEL [E4A], the protein stability index was determined as 3.26.

For the variant ELDHLLKEISRKRRSIRYGREVEL [E4H], the protein stability index came to 2.6.

As to ELDMLLKEISRKRRSIRYGREVEL [E4M], the protein stability index was found to be 1.9.

With ELDRLLKEISRKRRSIRYGREVEL [E4R], the protein stability index came out at 2.16.

With ELDESLKEISRKRRSIRYGREVEL [L5S], the protein stability index amounted to 3.6.

Take ELDEILKEISRKRRSIRYGREVEL [L5I]: the protein stability index was 2.45.

Take ELDECLKEISRKRRSIRYGREVEL [L5C]: the protein stability index turned out to be 3.12.

As for ELDEMLKEISRKRRSIRYGREVEL [L5M], the protein stability index stood at 3.25.

Consider ELDERLKEISRKRRSIRYGREVEL [L5R], for which the protein stability index came out at 3.18.

On to ELDEALKEISRKRRSIRYGREVEL [L5A], for which the protein stability index stood at 3.07.

Consider ELDEQLKEISRKRRSIRYGREVEL [L5Q], for which the protein stability index was determined as 4.14.

With ELDEHLKEISRKRRSIRYGREVEL [L5H], the protein stability index came to 4.08.

As for ELDEPLKEISRKRRSIRYGREVEL [L5P], the protein stability index amounted to 3.82.

For ELDEWLKEISRKRRSIRYGREVEL [L5W], the protein stability index worked out at 2.35.

On to ELDEDLKEISRKRRSIRYGREVEL [L5D], for which the protein stability index was 3.73.

As for ELDEFLKEISRKRRSIRYGREVEL [L5F], the protein stability index is 2.69.

In the case of ELDEVLKEISRKRRSIRYGREVEL [L5V], the protein stability index amounted to 2.86.

Regarding ELDENLKEISRKRRSIRYGREVEL [L5N], the protein stability index came to 2.69.

On to ELDEKLKEISRKRRSIRYGREVEL [L5K], for which the protein stability index came to 3.61.

In the case of ELDETLKEISRKRRSIRYGREVEL [L5T], the protein stability index is 3.58.

For the variant ELDEYLKEISRKRRSIRYGREVEL [L5Y], the protein stability index is 3.44.

As to ELDEELKEISRKRRSIRYGREVEL [L5E], the protein stability index was found to be 4.15.

For ELDEGLKEISRKRRSIRYGREVEL [L5G], the protein stability index worked out at 3.96.

On to LLDELLKEISRKRRSIRYGREVEL [E1L], for which the protein stability index came to 1.98.

Regarding NLDELLKEISRKRRSIRYGREVEL [E1N], the protein stability index is 2.56.

On to SLDELLKEISRKRRSIRYGREVEL [E1S], for which the protein stability index was determined as 4.1.

On to ILDELLKEISRKRRSIRYGREVEL [E1I], for which the protein stability index was determined as 1.77.

Take HLDELLKEISRKRRSIRYGREVEL [E1H]: the protein stability index was 2.47.

As for WLDELLKEISRKRRSIRYGREVEL [E1W], the protein stability index was found to be 2.69.

Consider QLDELLKEISRKRRSIRYGREVEL [E1Q], for which the protein stability index was found to be 2.41.

Take TLDELLKEISRKRRSIRYGREVEL [E1T]: the protein stability index is 3.25.

As to GLDELLKEISRKRRSIRYGREVEL [E1G], the protein stability index amounted to 2.52.

With FLDELLKEISRKRRSIRYGREVEL [E1F], the protein stability index is 1.83.

PLDELLKEISRKRRSIRYGREVEL [E1P]: the protein stability index stood at 3.07.

Regarding CLDELLKEISRKRRSIRYGREVEL [E1C], the protein stability index was 2.07.

As for VLDELLKEISRKRRSIRYGREVEL [E1V], the protein stability index came to 1.93.

Regarding ALDELLKEISRKRRSIRYGREVEL [E1A], the protein stability index turned out to be 2.54.

Take MLDELLKEISRKRRSIRYGREVEL [E1M]: the protein stability index was determined as 2.73.

For the variant RLDELLKEISRKRRSIRYGREVEL [E1R], the protein stability index turned out to be 2.17.

For KLDELLKEISRKRRSIRYGREVEL [E1K], the protein stability index came out at 2.26.

As to DLDELLKEISRKRRSIRYGREVEL [E1D], the protein stability index came to 2.3.

With ETDELLKEISRKRRSIRYGREVEL [L2T], the protein stability index is 3.38.

For the variant EPDELLKEISRKRRSIRYGREVEL [L2P], the protein stability index amounted to 3.47.

Turning to EWDELLKEISRKRRSIRYGREVEL [L2W], the protein stability index was found to be 2.99.

For the variant EHDELLKEISRKRRSIRYGREVEL [L2H], the protein stability index was 4.32.

For EMDELLKEISRKRRSIRYGREVEL [L2M], the protein stability index was 2.92.

As to ENDELLKEISRKRRSIRYGREVEL [L2N], the protein stability index is 4.2.

Take ERDELLKEISRKRRSIRYGREVEL [L2R]: the protein stability index stood at 3.71.

With EEDELLKEISRKRRSIRYGREVEL [L2E], the protein stability index amounted to 4.41.

In the case of ESDELLKEISRKRRSIRYGREVEL [L2S], the protein stability index turned out to be 2.99.

In the case of EGDELLKEISRKRRSIRYGREVEL [L2G], the protein stability index came to 3.58.

Regarding EFDELLKEISRKRRSIRYGREVEL [L2F], the protein stability index amounted to 2.49.

In the case of EYDELLKEISRKRRSIRYGREVEL [L2Y], the protein stability index was found to be 3.54.

Take EIDELLKEISRKRRSIRYGREVEL [L2I]: the protein stability index was determined as 2.6.

As for EDDELLKEISRKRRSIRYGREVEL [L2D], the protein stability index amounted to 4.14.

On to EVDELLKEISRKRRSIRYGREVEL [L2V], for which the protein stability index was found to be 2.43.

EQDELLKEISRKRRSIRYGREVEL [L2Q]: the protein stability index worked out at 4.26.

For EADELLKEISRKRRSIRYGREVEL [L2A], the protein stability index was 3.79.

Turning to EKDELLKEISRKRRSIRYGREVEL [L2K], the protein stability index was 4.09.

In the case of ECDELLKEISRKRRSIRYGREVEL [L2C], the protein stability index turned out to be 3.06.

For ELDELCKEISRKRRSIRYGREVEL [L6C], the protein stability index was 3.29.

In the case of ELDELAKEISRKRRSIRYGREVEL [L6A], the protein stability index worked out at 3.65.

As to ELGELLKEISRKRRSIRYGREVEL [D3G], the protein stability index amounted to 1.67.

For ELEELLKEISRKRRSIRYGREVEL [D3E], the protein stability index amounted to 2.51.

Consider ELHELLKEISRKRRSIRYGREVEL [D3H], for which the protein stability index is 2.48.

As to ELYELLKEISRKRRSIRYGREVEL [D3Y], the protein stability index came out at 2.12.

With ELSELLKEISRKRRSIRYGREVEL [D3S], the protein stability index is 2.57.

For ELTELLKEISRKRRSIRYGREVEL [D3T], the protein stability index is 1.8.

Consider ELKELLKEISRKRRSIRYGREVEL [D3K], for which the protein stability index was determined as 2.38.

ELNELLKEISRKRRSIRYGREVEL [D3N]: the protein stability index stood at 3.35.

Consider ELIELLKEISRKRRSIRYGREVEL [D3I], for which the protein stability index stood at 3.46.

For ELLELLKEISRKRRSIRYGREVEL [D3L], the protein stability index came to 1.63.

ELWELLKEISRKRRSIRYGREVEL [D3W]: the protein stability index came to 1.75.

As for ELCELLKEISRKRRSIRYGREVEL [D3C], the protein stability index turned out to be 1.73.

For the variant ELRELLKEISRKRRSIRYGREVEL [D3R], the protein stability index stood at 1.86.

For ELMELLKEISRKRRSIRYGREVEL [D3M], the protein stability index worked out at 1.65.

As to ELFELLKEISRKRRSIRYGREVEL [D3F], the protein stability index came out at 2.12.

For ELPELLKEISRKRRSIRYGREVEL [D3P], the protein stability index stood at 2.26.

Take ELQELLKEISRKRRSIRYGREVEL [D3Q]: the protein stability index turned out to be 2.62.

Regarding ELAELLKEISRKRRSIRYGREVEL [D3A], the protein stability index was found to be 1.76.
